2 molecules from patent publication US9827336B2, “Radio-pharmaceutical complexes” (Bayer AS, priority 2012, dated 2017) can be followed below.

Series [1] has as its system HL-60 tumour. Put plainly: Biodistribution in HL-60 tumour bearing nude mice. The settings on record: 15 kBq/animal intravenous, HL-60 xenograft.
Text: Female NMRI nude mice were xenografted with cells from the human HL-60 tumour cell line. […] 54 female NMRI nude mice (Taconic, Europe) were used in the study.
The animals were allowed an acclimation period of at least 5 days before entering the study and were at an age of 4 weeks before tumour inoculation. […] Animals were kept in individually ventilated cages (IVC, Scanbur) with HEPA filtered air and had ad libitum access to “Rat and mouse nr.3 Breeding” diet (Scanbur BK) and water acidified by addition of HCl to a molar concentration of 1 mM (pH 3.0). HL-60 cells (ATCC/United Kingdom; Catalog Number CCL-240) were grown and prepared for subcutaneous inoculation in IMDM (Invitrogen; #12440-046) in presence of 20% FCS and penicillin/streptomycin. […]
Animals were euthanized at predetermined time points post injection, and blood, muscle, femur, kidneys, lung, liver, stomach, small intestine, large intestine and tumour were collected. Tissues and blood samples were weighed, and the radioactivity in each sample was measured using gamma spectroscopy (HPGe15p or HPGe50p germanium detectors).
The measured radioactivity (Bq) was related to the radioactivity measured in 10% injection standard samples, and the percentage of Th-227 and Ra-223 were calculated and presented as % ID or % ID per gram of tissue.
The target in another series is T1, CD33 (Homo sapiens, UniProt P20138).
T1 construct: endogenous in cells; host or cells: HL-60 cells
Put plainly: Binding to CD33-positive HL-60 cells by flow cytometry. The conditions noted are these: FIG. 2. How it is done:
Binding to CD33-positive HL-60 cells were studied by flow cytometry. The determination of EC50 based on the plotted curve gives an approximate value for the affinity. The commercially available mouse anti human CD33 (BD Pharmingen; #555450, 1 mg/mL) was used as a reference antibody for assessment of the affinity, including a setup with a 50:50 mixture with the mAb to be analyzed. This assay was also used to confirm that target binding affinity was not negatively affected by conjugation with the chelator.
HL-60 cells were grown in Iscove's Modified Dulbecco's Medium (IMDM; Invitrogen; #12440-046) in the presence of 20% of fetal bovine serum and penicillin/streptomycin. […] Subsequently, 20 μL of the preparation of resuspended cells was diluted 1:500 in Coulter Isoton II Diluent, and counted using a Beckman Coulter Z2 instrument (Beckman Coulter; CA, USA). […]
The mAb or conjugate to be analyzed was prepared fresh form frozen stock by shifting the storage buffer to PBS, kept at 4° C., and used within a few days after preparation. […]
The cells were washed twice, as described above, and re-suspended in 200 μL PBS, supplemented with 0.1% BSA. All samples were analysed in 96-well round or conical bottom plates. Fluorescent signals were recorded on a Beckham Coulter Cell lab Quant SC flow cytometer (Beckman Coulter; CA, USA). […]

Series [2] concerns HL-60 tumour. Details: species or system mice. The conditions noted are these: mouse, in vivo. The procedure: Cell preparation and xenografting of female NMRI nude mice are done as described in Example 9. […] The mice have an approximated body weight of approximately 20 grams at the start of the study. […] Mice will be inoculated with tumour cells about 10 days before dosing in order to have mice with average size of tumours in the range from 75-150 mm3. Animals are randomized into 4 treatment groups and 3 control groups (n=10/group).
Mice in the treatment groups are injected into the tail vein with 100 μL containing 75 kBq/mL, 150 kBq/mL, 225 kBq/mL or 300 kBq/mL AGC0715-Th-227, to achieve 250, 500, 750 or 1000 kBq/kg body weight (b.w.). The mice in the control groups are administered either with vehicle only (buffer), non-radioactive antibody (AGC0715) or trastuzumab-Th-227, labelled to a specific activity of 500 kBq/kg (isotype control).
Appearance of tumours will carefully be monitored, and the tumours will be scored (if not large enough to be measured) or measured thrice a week according to the following scheme:
Tumour diameters will be measured in two dimensions using a digital caliper and the volume will be estimated by the following formula: L×W×[…] (Length×Width×½ Width). […] Body weights will be recorded once a week. […]
The mice will be terminated following maximal tumour size of 15 mm diameter. […] In case of observations of adverse clinical signs, these will be recorded as note to files. […]

In series [3] the test system is CD33 positive HL-60 cells. In words: Th-227-induced cell cytotoxicity (ATP, CellTiter-Glo) in HL-60 cells. The format is cell-based, human. The settings on record: 3 nM or 0.3 nM, 44 kBq/μg, up to day 7. The procedure: In vitro cell cytotoxicity was investigated in CD33 positive HL-60 cells. AGC0715 and the control trastuzumab conjugated AGC0015 were used to chelate Th-227 to a specific activity of 44 kBq/μg. HL-60 cells were grown at 37° C. with 5% CO2, and split 1:5 three times a week. The day before the assay the culture medium (Iscove's Modified Dulbecco's Medium (IMDM) with 20% FBS and 1% Penicillin/Streptomycin) was replaced by new medium and the volume adjusted to give 400 000 cells per mL.
About, 1 600 000 cell (4 mL) were added to each well in a 6 well plate. The plate was incubated until next day for addition of labelled mAb, or culture medium. After adding labelled mAb, or culture medium, the plate was incubated for 4 additional hours. In one experiment AGC0715 or trastuzumab-AGC0015 was added to each well to a final concentration of 3 nM. In another experiment the final concentration was 0.3 nM.
Following incubation, the cells were washed twice in culture medium, and the ATP in the supernatant and in the pellet was measured. The cells were then split 1:2 and incubated in culture medium at 37° C. with 5% CO2. The same procedure, but with only one wash, was repeated at days 2, 4, and 7.
(In general: ATP-based viability assays read luminescence as a measure of living cells.)

T1 sequence (P20138 18-364): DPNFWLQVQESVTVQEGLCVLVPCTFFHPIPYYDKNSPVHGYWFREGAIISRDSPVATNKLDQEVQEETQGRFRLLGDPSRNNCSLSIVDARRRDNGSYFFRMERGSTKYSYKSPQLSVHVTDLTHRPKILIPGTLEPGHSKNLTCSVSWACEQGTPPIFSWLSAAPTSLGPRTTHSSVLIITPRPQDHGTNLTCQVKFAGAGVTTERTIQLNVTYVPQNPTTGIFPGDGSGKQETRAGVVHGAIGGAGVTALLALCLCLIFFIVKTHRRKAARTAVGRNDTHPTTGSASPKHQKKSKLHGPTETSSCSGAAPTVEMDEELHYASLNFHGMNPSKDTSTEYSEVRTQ

B1: AGC0715: AGC0700 conjugated to high-solubility ligand (12) (conjugate)
heavy: QVQLVQSGAEVKKPGSSVKVSCKASGYTFTDYNMHWVRQAPGQGLEWIGYIYPYNGGTGYNQKFKSKATITADESTNTAYMELSSLRSEDTAVYYCARGRPAMDYWGQGTLVTVSSASTKGPSVFPLAPSSKSTSGGTAALGCLVKDYFPEPVTVSWNSGALTSGVHTFPAVLQSSGLYSLSSVVTVPSSSLGTQTYICNVNHKPSNTKVDKKVEPKSCDKTHTCPPCPAPELLGGPSVFLFPPKPKDTLMISRTPEVTCVVVDVSHEDPEVKFNWYVDGVEVHNAKTKPREEQYNSTYRVVSVLTVLHQDWLNGKEYKCKVSNKALPAPIEKTISKAKGQPREPQVYTLPPSRDELTKNQVSLTCLVKGFYPSDIAVEWESNGGQPENNYKTTPPVLDSDGSFFLYSKLTVDKSRWQQGNVFSCSVMHEALHNHYTQKSLSLSPG
light: DIQMTQSPSSLSASVGDRVTITCRASESVDNYGISFMNWFQQKPGKAPKLLIYAASNQGSGVPSRFSGSGSGTDFTLTISSLQPDDFATYYCQQSKEVPWTFGQGTKVEIKRTVAAPSVFIFPPSDEQLKSGTASVVCLLNNFYPREAKVQWKVDNALQSGNSQESVTEQDSKDSTYSLSSTLTLSKADYEKHKVYACEVTHQGLSSPVTKSFNRGEC
modifications: chelator AGC0015 (12) conjugated; site not stated; none, one or two chelators on a chain
Consider B1, for which, in the series on HL-60 tumour [1], the “tumour targeting / build-up of radioactivity” value is given as “Build-up of radioactivity was seen in the tumour, but in no normal tissue”. Further, in the series with CD33, the binding affinity entry is listed as “comparable to the non-conjugated AGC0700”.

B2: AGC0715-Th-227: AGC0715 antibody-chelator conjugate chelated with Th-227 (conjugate)
heavy: B1 heavy
light: B1 light
modifications: chelator AGC0015 (12) conjugated, chelating Th-227; site not stated
Turning to B2, the adverse clinical signs entry in the series with HL-60 tumour [2] is “No adverse clinical sigs”. Further, in the series with HL-60 tumour [1], the “tumour targeting / build-up of radioactivity” value is on record as “specific tumour uptake”. Also, in series [3], the “cellular toxicity (cell viability by ATP)” value is listed as “resulted in cellular toxicity”.
